Measurements as given in paper PMC2909260.

Molecular target: ILT2 (immunoglobulin-like transcript 2)/CD85j (human (endogenous in peripheral blood CD4+ T cells)) (UniProt Q8NHL6)
Sequence of UniProt Q8NHL6 (Q8NHL6 24-650): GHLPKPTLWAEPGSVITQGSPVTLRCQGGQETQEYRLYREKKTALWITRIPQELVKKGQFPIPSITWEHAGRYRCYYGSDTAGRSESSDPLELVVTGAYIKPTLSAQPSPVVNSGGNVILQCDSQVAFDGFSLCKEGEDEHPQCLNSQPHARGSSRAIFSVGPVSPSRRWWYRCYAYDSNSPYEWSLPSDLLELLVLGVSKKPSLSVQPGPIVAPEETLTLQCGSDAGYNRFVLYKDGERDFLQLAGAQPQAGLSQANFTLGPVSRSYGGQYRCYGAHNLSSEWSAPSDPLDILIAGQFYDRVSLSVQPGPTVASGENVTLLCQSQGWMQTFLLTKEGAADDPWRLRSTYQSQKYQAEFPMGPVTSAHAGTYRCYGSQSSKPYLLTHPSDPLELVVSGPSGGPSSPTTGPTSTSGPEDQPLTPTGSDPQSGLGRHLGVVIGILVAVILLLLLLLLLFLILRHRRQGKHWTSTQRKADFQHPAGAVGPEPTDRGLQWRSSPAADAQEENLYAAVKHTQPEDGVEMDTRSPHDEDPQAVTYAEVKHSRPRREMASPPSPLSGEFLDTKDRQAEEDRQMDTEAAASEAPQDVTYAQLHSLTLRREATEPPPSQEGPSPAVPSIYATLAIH

% of inhibition of CXCR3 expression (flow cytometry) by sHLA-G on anti-CD3 stimulated CD4+ T cells, with blocking anti-ILT2/CD85j mAb (clone #292319, 1 ug/10^6 cells) added: 31.5%
% of inhibition of CXCR3 expression (flow cytometry) by sHLA-G on anti-CD3 stimulated CD4+ T cells, with isotype-matched control mAb added (reference for the anti-ILT2 blocking): 47.5%
Substance: soluble HLA-G (recombinant HLA-G1/G5 protein) (from UniProt P17693 25-308; P61769 21-119) (complex)
